Test results as given in publication PMC6032326, “Connexin43 Carboxyl-Terminal Domain Directly Interacts with β-Catenin” (International Journal of Molecular Sciences, 2018).
Several values for one entry are separate records, joined by “and”; a condition that tells them apart may be missing. Equal values may be shown once.

Experiments:
[1] = molecular target: T1, Cx43CT Y313D (rat, UniProt P08050 236-382, Y313D, 15N-labelled); assay: NMR titration; 15N-HSQC at 7 °C; 15N-labelled Cx43CT (WT, Y313D or Y265,313D) at constant 35 μM, unlabelled β-catenin, β-catenin CT or β-catenin ΔCT added up to 285 μM; 1x PBS pH 7.8, 2 mM dithiothreitol; KD from the fit of the decrease in signal intensity; conditions: both partners purified
T1 construct: Connexin43 (Cx43), rat, carboxyl-terminal domain, residues V236-I382, with the phosphomimetic Y313D; The mutation was put into 'the Cx43CT plasmid'; also called single phosphomimetic; source: bacterial expression vector pGEX-6P-2, expressed and purified in 1x PBS as previously described

[2] = molecular target: T2, Connexin43 carboxyl-terminal domain (V236–I382) (rat, UniProt P08050 236-382, 15N-labelled); assay: as above; conditions: both partners purified
T2 construct: Connexin43 (Cx43), rat, carboxyl-terminal domain, residues V236-I382; pGEX-6P-2 carries a PreScission site, so GST was probably cleaved (surmise); also called Cx43CT; Cx43CT WT; source: bacterial expression vector pGEX-6P-2, expressed and purified in 1x PBS as previously described

B1: β-catenin carboxyl-terminal (CT) domain (S681–L781) (domain or fragment, human, UniProt P35222 681-781, looked up)
chain: SLFRTEPMAWNETADLGLDIGAQGEPLGYRQDDPSYRSFHSGGYGQDALGMDPMMEHEMGGHHPGADYPVDGLPDLGHAQDLMDGLPPGDSNQLAWFDTDL
notes: β-catenin, human, C-terminal domain, residues S681-L781; also called β-catenin CT; β-catenin CT domain
Kd [1]: 341 µM
Kd [2]: 210 µM and 202 µM
